From publication PMC9399903 (Nature structural & molecular biology, 2022) come the findings set out here.

For data set [1], the target named is wild-type yeast core particle (CP, 20S proteasome) (S. cerevisiae (endogenous in yeast)) (UniProt P23639).
The data set “SEC” deals with the molecule itself. Nature of the data set: SEC. Background: In gel filtration, larger molecules generally elute earlier.

wild-type yeast core particle (CP, 20S proteasome) (S. cerevisiae (endogenous in yeast)), sequence (P23639 whole entry, looked up): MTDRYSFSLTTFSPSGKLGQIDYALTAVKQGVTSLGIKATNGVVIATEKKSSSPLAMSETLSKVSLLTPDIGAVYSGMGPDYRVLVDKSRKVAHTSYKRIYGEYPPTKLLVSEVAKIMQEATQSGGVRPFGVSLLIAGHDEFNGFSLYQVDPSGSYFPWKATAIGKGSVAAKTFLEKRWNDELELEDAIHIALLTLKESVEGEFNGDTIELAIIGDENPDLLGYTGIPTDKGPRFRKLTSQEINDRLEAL

B1: Fub1 (S. cerevisiae PI31), endogenous untagged (natural protein, UniProt P25659 1-250, looked up)
chain: MIENKVELVAELVLESIGKTEVVSRHTEGTKSCQVSFRIKDSPSEKGSTSFLSELVVIQTLDDNDKYTVVIRHGTSITMACVVGYSDFKLPTELKWPLERESLPVEPDLKPIMTQLKRQTAGSADMPKFDDEYQAQARQNQGTAPLNPYPGLTVTEPSFANPAGGYADGDLYPVGTSHPDWSGGLPNPLGNPSSQGGMIFDPNRRPAPRREDMPPGWMPGSKYDEPFGPGSGGFGGSGSGGFGGSGSGFI
The stoichiometry N is a count of units in the complex or per binding partner. In data set [1], B1 yielded an inhibition of CP peptidase activity at 2-fold molar excess of Fub1 of 50%. Besides, the “stoichiometry N” value in “SEC” was determined as 2.
